{
  "source": "patent US20210373004A1",
  "about": "(BIOASTER, published 2021)",
  "binders": {"B1": {"name": "Myc-RLuc8-Im9-6His (other)", "chain": "MGGEQKLISEEDLGGSASKVYDPEQRKRMITGPQWWARCKQMNVLDSFINYYDSEKHAENAVIFLHGNATSSYLWRHVVPHIEPVARCIIPDLIGMGKSGKSGNGSYRLLDHYKYLTAWFELLNLPKKIIFVGHDWGAALAFHYAYEHQDRIKAIVHMESVVDVIESWDEWPDIEEDIALIKSEEGEKMVLENNFFVETVLPSKIMRKLEPEEFAAYLEPFKEKGEVRRPTLSWPREIPLVKGGKPDVVQIVRNYNAYLRASDDLPKLFIESDPGFFSNAIVEGAKKFPNTEFVKVKGLHFLQEDAPDEMGKYIKSFVERVLKNEQKLELKHSISDYTEAEFLQLVTTICNADTSSEEELVKLVTHFEEMTEHPSGSDLIYYPKEGDDDSPSGIVNTVKQWRAANGKLEGGGSHHHHHH", "notes": "Immunity protein fused to the luciferase RLuc8 as reporter; added in solution; also called Im9-RLuc8; Im9-Rluc8"}},
  "key": {"Flag-mCherry-ColE8-6His [1]": {"molecular_target": "T1, Flag-mCherry-ColE8-6His (Escherichia coli)", "T1 construct": "also called Colicin E8", "experiment": "EIA 8 plex n° 2: colicin coated at 100 nM, Im-RLuc8 alone at 100 nM, luciferase signal"}, "[2]": {"molecular_target": "T2, Flag-mCherry-ColLeaf-Cys-6His (Pseudomonas sp Leaf83)", "experiment": "EIA 8 plex n° 2: colicin coated at 100 nM, Im-RLuc8 alone at 100 nM, luciferase signal"}, "Flag-mCherry-ColE9-6His [3]": {"molecular_target": "T3, Flag-mCherry-ColE9-6His (Escherichia coli)", "T3 construct": "also called Colicin E9", "experiment": "EIA 8 plex n° 2: colicin coated at 100 nM, Im-RLuc8 alone at 100 nM, luciferase signal (FIG. 4, light grey bars)"}, "Flag-mCherry-ColE9-6His [4]": {"molecular_target": "T3, Flag-mCherry-ColE9-6His", "experiment": "EIA 8 plex n° 1: colicin coated at 100 nM, Im-RLuc8 alone at 100 nM, luciferase signal (FIG. 3, light grey bars)"}, "[5]": {"molecular_target": "T4, Flag-mCherry-ColAP41-Cys-6His (Pseudomonas aeruginosa AP41)", "experiment": "EIA 8 plex n° 1: colicin coated at 100 nM, Im-RLuc8 at 100 nM, luminescence; light bar alone, dark bar with the 7 other unfused Im proteins"}, "[6]": {"molecular_target": "T5, Flag-mCherry-ColSyr-Cys-6His (Pseudomonas syringae B728A)", "experiment": "EIA 8 plex n° 1: colicin coated at 100 nM, Im-RLuc8 at 100 nM, luminescence; light bar alone, dark bar with the 7 other unfused Im proteins"}, "[7]": {"molecular_target": "T2, Flag-mCherry-ColLeaf-Cys-6His", "experiment": "EIA 8 plex n° 2: colicin coated at 100 nM, Im-RLuc8 at 100 nM, luminescence; light bar alone, dark bar with the 7 other unfused Im proteins"}, "Flag-mCherry-ColE8-6His [8]": {"molecular_target": "T1, Flag-mCherry-ColE8-6His", "experiment": "kinetics, literature value (Li W. et al., 2004) printed above the bar pair; unit from the legend paragraph 10"}, "Flag-EmGFP-ColE7-6His [9]": {"molecular_target": "T6, Flag-EmGFP-ColE7-6His (Escherichia coli)", "T6 construct": "also called Colicin E7", "experiment": "kinetics, literature value (Li W. et al., 2004) printed above the bar pair; unit from the legend paragraph 10"}, "Flag-mCherry-ColE9-6His [10]": {"molecular_target": "T3, Flag-mCherry-ColE9-6His", "experiment": "kinetics, literature value (Li W. et al., 2004) printed above the bar pair; unit from the legend paragraph 10"}, "[11]": {"molecular_target": "T4, Flag-mCherry-ColAP41-Cys-6His", "experiment": "EIA 8 plex n° 1: colicin coated at 100 nM, Im-RLuc8 alone at 100 nM, luciferase signal"}, "Flag-EmGFP-ColE7-6His [12]": {"molecular_target": "T6, Flag-EmGFP-ColE7-6His", "experiment": "EIA 8 plex n° 1: colicin coated at 100 nM, Im-RLuc8 alone at 100 nM, luciferase signal"}, "[13]": {"molecular_target": "T5, Flag-mCherry-ColSyr-Cys-6His", "experiment": "EIA 8 plex n° 1: colicin coated at 100 nM, Im-RLuc8 alone at 100 nM, luciferase signal"}, "Flag-mCherry-ColE9-6His [14]": {"molecular_target": "T3, Flag-mCherry-ColE9-6His", "experiment": "EIA 4 plex: colicin coated at 100 nM, Im-RLuc8 alone at 100 nM, luciferase signal (FIG. 1, light grey bars)"}},
  "data": [
    {"binder": "B1", "values": [
      {"measurement": "RLU", "setting": "Flag-mCherry-ColE8-6His [1]", "value": "> 100000", "unit": "RLU"},
      {"measurement": "RLU", "setting": "[2]", "value": "> 100000", "unit": "RLU"},
      {"measurement": "RLU", "setting": "Flag-mCherry-ColE9-6His [3]", "value": "> 2.4e+06", "unit": "RLU"},
      {"measurement": "RLU", "setting": "Flag-mCherry-ColE9-6His [4]", "value": "> 2e+06", "unit": "RLU"},
      {"measurement": "binding result", "setting": "[5]", "value": "no binding (tested: 100 nM)"},
      {"measurement": "binding result", "setting": "[6]", "value": "no binding (tested: 100 nM)"},
      {"measurement": "binding result", "setting": "[7]", "value": "no binding (tested: 100 nM)"},
      {"measurement": "Kd", "setting": "Flag-mCherry-ColE8-6His [8]", "value": 64, "unit": "nM"},
      {"measurement": "Kd", "setting": "Flag-EmGFP-ColE7-6His [9]", "value": 38, "unit": "nM"},
      {"measurement": "Kd", "setting": "Flag-mCherry-ColE9-6His [10]", "value": 0.024, "unit": "pM"},
      {"measurement": "RLU", "setting": "[11]", "value": "> 100000", "unit": "RLU"},
      {"measurement": "RLU", "setting": "Flag-EmGFP-ColE7-6His [12]", "value": "> 100000", "unit": "RLU"},
      {"measurement": "RLU", "setting": "[13]", "value": "> 100000", "unit": "RLU"},
      {"measurement": "RLU", "setting": "Flag-mCherry-ColE9-6His [14]", "value": "> 400000", "unit": "RLU"}
    ]}
  ]
}
